Molecular target: Nonhuman Primate CD123
Assay: SPR (Biacore T-100), univalent affinity; antibody captured on the CM4 chip, nonhuman primate CD123 ECD as analyte

Nonhuman Primate CD123, sequence (soluble extracellular domain with His and Avi tags, as listed by the source limits assumed, form in doubt): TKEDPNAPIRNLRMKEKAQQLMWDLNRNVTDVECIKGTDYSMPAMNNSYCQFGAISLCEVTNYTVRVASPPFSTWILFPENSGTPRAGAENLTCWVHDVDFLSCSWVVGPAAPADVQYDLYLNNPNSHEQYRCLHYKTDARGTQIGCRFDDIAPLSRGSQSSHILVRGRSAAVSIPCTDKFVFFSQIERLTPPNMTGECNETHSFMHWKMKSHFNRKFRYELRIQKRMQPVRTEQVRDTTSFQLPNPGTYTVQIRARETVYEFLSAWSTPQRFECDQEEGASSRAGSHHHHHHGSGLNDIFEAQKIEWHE

- Kd: 16.1 nM
- koff: 0.0023 s⁻¹
- kon: 143000 M⁻¹ s⁻¹
B1: 123-10C4 (murine anti-CD123 antibody, IgG2b isotype, Kappa Light Chain) (antibody, V domains shown)
VH: QVQLKESGPGLVAPSQNLSITCTVSGFSLTTYDINWIRQPPGKGLEWLGVIWTGGGTNYNSAFMSRLSISKDNSKSQVFLKMNSLQTDDTAMYYCVRGDTYHYALDFWGQGTSVTVSS
VL: DIVMSQSPSSLAVSAGEKVTMSCKSSQSLLSSGTRKNYLAWYQQKPGQSPKLLIYWASTRESGVPDRFTGSGSGTDFTLTISSVQAEDLAVYYCKQSYILFTFGSGTKLEIK

Reference: patent US20230295316A1
